Measurements as given in patent US20140378374A1, “METHODS OF TREATMENT” (GlaxoSmithKline Intellectual Property (No.2) Limited, priority 2013, published 2014).
Where two headings read alike, the source gives them in different places.

Assays:
[1] = in vivo, cited from earlier work
[2] = Phase 1 single-dose (30 mg subcutaneous) pharmacokinetics and safety study in T2DM with normal or varying degrees of renal impairment; type: in vivo, human; details: for AUC Ratio / Cmax Ratio: single 30 mg dose
Description: A Phase 1, open-label, nonrandomized study evaluated the pharmacokinetics of a single 30 mg subcutaneous dose of albiglutide in subjects with T2DM and normal or varying degrees of renal impairment. Eligible subjects were men and women from 30 to 75 years of age (inclusive) with T2DM and HbA1c between ≧6.0% and ≦10.5%. […] Participants on hemodialysis were on stable treatment for at least 3 months before screening and had serum albumin ≧[…] and hemoglobin ≧8 g/dL.
Venous blood samples for determination of albiglutide were drawn on Day 1 prior to dosing and 6 hours after dosing and on Days 2, 3, 5, 10, 14, 21, 29, and 42 after administration of albiglutide (30 mg subcutaneous). In subjects undergoing hemodialysis, Day 1 was planned to be the day before a scheduled hemodialysis day (Day 2). Following blood sampling on Day 1 (before dosing and 6 hours after dosing) blood samples were taken before and after each dialysis procedure over the next 7 weeks. For all subjects, each blood sample was about 3 mL and drawn into an EDTA collection tube, immediately placed on crushed ice and water, and centrifuged for 10 minutes at 1,500 g at 4° C. Approximately 1 mL of plasma was transferred to a sterile 1.8-mL tube (Nunc® CryoTube®, Sigma-Aldrich) and stored at −70° C. until assaying.
Albiglutide PK samples collected in participants undergoing hemodialysis also were analyzed to assess predialysis and postdialysis changes in albumin concentrations.
Plasma samples were analyzed for albiglutide by using a validated enzyme-linked immunosorbent assay (ELISA) and were diluted 100-fold with sample buffer before analysis. Albiglutide was captured using a rabbit anti-human GLP-1 (7-36) amide and detected using a rabbit anti-HSA conjugated to biotin. ELISA experiments were performed using the Furoninc® 96 well plate (Nunc, cat. #437796) with the following steps. 1) […], antibody coating solution of 5.0 μg/mL anti-GLP-1 (7-36) Amide (human) IgG (Peninsula Laboratories, cat. # T-4111) in 50 mM sodium carbonate-bicarbonate buffer pH 9.4 was added to each well, sealed with aseptic sealing tape and incubated for 24 hours (±12 hours) at nominally 4° C. The microtiter plate was washed 5 times with […] wash buffer (10 mM Sodium Phosphate, 150 mM NaCl, 0.05% Tween 20, pH 7.5) using plate washer; 2) […] blocking buffer of SuperBlock in PBS (SuperBlock (Pierce, cat. #37515) in PBS, 5.0% Rabbit Plasma) was added to each well, sealed and incubated with constant shaking for approximately 1.5 hour (±30 minutes) at ambient room temperature and the microtiter plate washed; 3) 100 mL of either standards, quality controls (QCs) or samples were added per well, sealed, incubated and washed; 4) 100 mL of Detection Antibody solution of Biotin Labelled Rabbit polyclonal to Human Serum Albumin (NOVUS Biologicals, cat. # NB 100-1674) was added per well, sealed, incubated and washed; 5) 100 mL of Reporter Tag solution (Streptavidin-HRPO Conjugate, Caltag, cat. # SA1007) was added per well, sealed, incubated and washed; 6) 100 mL of Development Substrate Pico (SuperSignal ELISA, Pierce, cat. #37070) was added, incubated and the plate read using plate reader (Wallac 1420 Victor Multilabel Counter, Perkin Elmer Life Sciences, Boston, Mass.). Sample concentrations were determined by interpolation from the standard curve, which was fitted using a weighted (1/x), 4-parameter logistic equation. The validated range of this assay (based on 10 μL of human plasma) is 50 ng/mL to 1,500 ng/mL.
During the single dose study and 3 of the phase 3 trials (Harmony 2, 4 and 5), the assay process was modified from manual pipetting of samples to robotic pipetting.
Pharmacokinetic calculations were based on actual sampling collection times. All statistical analyses of pharmacokinetic parameters were performed using SAS Version 9.1 or later (SAS Institute, Inc., Cary, N.C.). […]

In the case of “Albiglutide: recombinant fusion protein of 2 copies of modified human GLP-1 (fragment 7-36(A8G)) genetically fused in series to recombinant human serum albumin”, the half-life [1] is given as “approximately 5 days”, the half-life ([1]; listed as SEQ ID NO:1) is given as “about 5 days” and the Any event ([2]; Hemodialysis (n = 10)) is given as 8 (80) n (%). The Dizziness ([2]; Hemodialysis (n = 10)) was 2 (20) n (%), the Fatigue ([2]; Hemodialysis (n = 10)) was 2 (20) n (%) and the Headache ([2]; Hemodialysis (n = 10)) was 3 (30) n (%). For the same substance, the “Hypoglycemia, Documented Symptomatic” value ([2]; Hemodialysis (n = 10)) was 1 (10) n (%), the Nausea ([2]; Hemodialysis (n = 10)) was 5 (50) n (%) and the “Total no. of events” value ([2]; Hemodialysis (n = 10)) was 38 n. For the same substance, the Vomiting ([2]; Hemodialysis (n = 10)) was 5 (50) n (%), the “AUC Ratio” value ([2]; Hemodialysis:Normal) was 0.99 and the “Cmax Ratio” value ([2]; Hemodialysis:Normal) was 1.11. The “AUC Ratio” value ([2]; Hemodialysis:Normal, listed as albiglutide) was 0.99 (0.63, 1.57), the Any event ([2]; Moderate (n = 11)) was 3 (27.3) n (%) and the Dizziness ([2]; Moderate (n = 11)) was 0 n (%). For the same substance, the Fatigue ([2]; Moderate (n = 11)) was 0 n (%), the Headache ([2]; Moderate (n = 11)) was 0 n (%) and the “Hypoglycemia, Documented Symptomatic” value ([2]; Moderate (n = 11)) was 0 n (%). For the same substance, the Nausea ([2]; Moderate (n = 11)) was 0 n (%), the “Total no. of events” value ([2]; Moderate (n = 11)) was 4 n and the Vomiting ([2]; Moderate (n = 11)) was 0 n (%). The “AUC Ratio” value ([2]; Moderate:Normal) was 1.32, the “Cmax Ratio” value ([2]; Moderate:Normal) was 1.21 and the “AUC Ratio” value ([2]; Moderate:Normal, listed as albiglutide) was 1.32 (0.96, 1.80). The Any event ([2]; Normal (n = 10)) was 8 (80) n (%), the Dizziness ([2]; Normal (n = 10)) was 0 n (%) and the Fatigue ([2]; Normal (n = 10)) was 0 n (%). The Headache ([2]; Normal (n = 10)) was 0 n (%), the “Hypoglycemia, Documented Symptomatic” value ([2]; Normal (n = 10)) was 0 n (%) and the Nausea ([2]; Normal (n = 10)) was 0 n (%). For the same substance, the “Total no. of events” value ([2]; Normal (n = 10)) was 8 n, the Vomiting ([2]; Normal (n = 10)) was 0 n (%) and the Any event ([2]; Severe (n = 10)) was 4 (40) n (%). For the same substance, the Dizziness ([2]; Severe (n = 10)) was 0 n (%), the Fatigue ([2]; Severe (n = 10)) was 0 n (%) and the Headache ([2]; Severe (n = 10)) was 1 (10) n (%). For the same substance, the “Hypoglycemia, Documented Symptomatic” value ([2]; Severe (n = 10)) was 2 (20) n (%), the Nausea ([2]; Severe (n = 10)) was 0 n (%) and the “Total no. of events” value ([2]; Severe (n = 10)) was 8 n. For the same substance, the Vomiting ([2]; Severe (n = 10)) was 0 n (%), the “AUC Ratio” value ([2]; Severe:Normal) was 1.39 and the “Cmax Ratio” value ([2]; Severe:Normal) was 1.23. For the same substance, the “AUC Ratio” value ([2]; Severe:Normal, listed as albiglutide) was 1.39 (1.03, 1.89), the “subjects with a hypoglycemic SAE” value ([2]; hemodialysis group, insulin-treated subject) was “One” and the “half-life, geometric mean” value ([2]; participants with impaired renal function) was 141 to 145 h. For the same substance, the “half-life, geometric mean” value ([2]; participants with normal renal function) was 122 h, the “observed increase in AUC” value ([2]; patients with severe renal impairment) was 30 to 40% and the “median time of peak concentrations (Tmax)” value ([2]; regardless of the level of renal impairment) was 88 to 96 h.
